According to patent publication US9649360B2, “Pharmaceutical composition for the treatment and/or prevention of disease involving abnormal accumulation of amyloid β protein” (SHIGA UNIVERSITY OF MEDICAL SCIENCE, priority 2012, dated 2017):

B1: ILEI: interleukin-like epithelial-mesenchymal transition inducer, secretory protein, SEQ ID NO: 1 (mature: SEQ ID NO: 2) (protein, listed as Homo sapiens)
chain: MRVAGAAKLVVAVAVFLLTFYVISQVFEIKMDASLGNLFARSALDTAARSTKPPRYKCGISKACPEKHFAFKMASGAANVVGPKICLEDNVLMSGVKNNVGRGINVALANGKTGEVLDTKYFDMWGGDVAPFIEFLKAIQDGTIVLMGTYDDGATKLNDEARRLIADLGSTSITNLGFRDNWVFCGGKGIKTKSPFEQHIKNNKDTNKYEGWPEVVEMEGCIPQKQD
B2: ILEI-His: purified recombinant ILEI protein from the pcDNA6/V5-His construct, added from outside the cells (protein, UniProt Q92520 25-227, looked up)
Protein FAM3C: QVFEIKMDASLGNLFARSALDTAARSTKPPRYKCGISKACPEKHFAFKMASGAANVVGPKICLEDNVLMSGVKNNVGRGINVALANGKTGEVLDTKYFDMWGGDVAPFIEFLKAIQDGTIVLMGTYDDGATKLNDEARRLIADLGSTSITNLGFRDNWVFCGGKGIKTKSPFEQHIKNNKDTNKYEGWPEVVEMEGCIPQKQD
modifications: V5-His tag
notes: purified recombinant ILEI protein from the pcDNA6/V5-His construct, added from outside the cells

Experiments:
[1] = tested on: γ-secretase; experiment: AICD production in transfected HEK293 cells treated with NEM (immunoblot); type: cell-based, human; details: NEM for 60 minutes, n=3
Procedure: (§1) Brain homogenates were lysed in a buffer (25 mM HEPES, pH 7.5, 150 mM NaCl, 2 mM EDTA, protease inhibitor cocktail and 10% glycerol) containing 1% Nonidet P40. Immunoblotting was performed as previously described (Nishimura, M., et al. Nat Med 5, 164-169 (1999)).
HEK293 cells transfected with control, ILEI siRNA, or ILEI cDNA (respectively denoted by ILEI-k/d and ILEI-oe in the figure) were treated with N-ethyl maleimide (NEM) for 60 minutes to block degradation of AICD. The AICD production was inhibited by a treatment with DAPT, which is a γ-secretase inhibitor (D in the figure). β-Actin was used as a loading control. The graphs show quantified AICD signal intensities (n=3).

[2] = tested on: endogenous Notch-1; experiment: γ-secretase cleavage of endogenous Notch-1 in mouse embryonic fibroblasts (NICD immunoblot); type: cell-based; details: MEFs, EDTA 1.5 mM; DAPT 1 μM; n=3
Procedure: as §1
Next, γ-secretase cleavage of endogenous Notch-1 in mouse embryonic fibroblasts (MEFs) was examined (FIG. 1d). Treatment of MEF with EDTA (1.5 mM) induces cleavage of TMIC (transmembrane/intracellular Notch) and generates NEXT (Notch extracellular truncation). NEXT is further cleaved by γ-secretase to release NICD (Notch intracellular domain). The NICD production was inhibited by DAPT (1 μM). β-Actin was used as a loading control. The graphs show quantified NICD signal intensities (n=3).

[3] = tested on: ILEI-Tg mice; experiment: Aβ40 and Aβ42 in brain homogenate fractions of ILEI-Tg mice (ELISA); type: in vivo, mouse; details: Tris-buffered saline-soluble and insoluble fractions, 8 months old, n=5, versus wild-type littermates
[4] = tested on: ILEI-Tg mice; details: mouse, in vivo
[5] = tested on: ILEI-Tg mice; experiment: Immunoblotting of brain homogenates of ILEI-Tg mice (APP-CTF, NICD); type: in vivo, mouse; details: 6-week-old ILEI-Tg mice versus wild-type littermates
[6] = tested on: stable ILEI-knockdown HEK293 cells; experiment: Aβ secretion after adding purified ILEI-His to culture solution of stable ILEI-knockdown HEK293 cells; type: cell-based, human
Procedure: Using this cell culture solution, the measurement of secretory Aβ from the cells was performed according to ELISAs specific for human Aβ40 and Aβ42 (Wako Pure Chemical Industries).
Purified ILEI-His was added into the culture solution of stable ILEI-knockdown HEK293 cells at the indicated concentration (μg ml^−1).

Molecule | AICD production [1] | NICD production (Notch cleavage by γ-secretase) [2] | Aβ40 level in brain homogenates [3] | Aβ42 level in brain homogenates [3] | development, fertility and gross morphology [4] | NICD levels in the brains [5] | decrease in APP-CTF levels in the brains [5] [%] | Aβ secretion ([6]; at a concentration of 7 μg ml^−1) | Aβ secretion ([6]; purified protein added to the culture solution at the indicated concentrations (μg ml^−1))
C[C@H](NC(=O)Cc1cc(F)cc(F)c1)C(=O)N[C@H](C(=O)OC(C)(C)C)c1ccccc1 [DAPT, reference compound] | inhibited | inhibited | – | – | – | – | – | – | –
B1 | – | does not perturb Notch cleavage | significantly reduced | significantly reduced | normal development and fertility without any gross morphological defect | no alteration | 30 | – | –
B2 | – | – | – | – | – | – | – | decreased to almost the same extent as in the case of introducing siRNA-resistant ILEI cDNA | diminished Aβ secretion in a dose-dependent manner
